Measurements reported in patent US20260216326A1 (PROMETHEUS BIOSCIENCES, published 2026).

T1: human TL1A (human, UniProt O95150 72-251, limits assumed)
T1 construct: also called tumor necrosis factor-like cytokine 1A; TNFSF15
T1 sequence (looked up): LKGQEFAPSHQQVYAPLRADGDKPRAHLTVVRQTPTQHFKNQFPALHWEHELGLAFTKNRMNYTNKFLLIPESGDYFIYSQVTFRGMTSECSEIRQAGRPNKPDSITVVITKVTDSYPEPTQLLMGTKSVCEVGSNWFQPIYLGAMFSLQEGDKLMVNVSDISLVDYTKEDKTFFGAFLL


Biological target: T1, human TL1A
Assay: ELISA titration on plate-coated human TL1A, unpurified culture supernatant

| Binder | Kd |
| --- | --- |
| A186 (antibody, IgG1, V domains shown) VH: QVQLVQSGAEVKKPGASVKVSCKASGFDIQDTYMHWVKQRPGQGLEWIGRIDPASGHTKYDPKFQVRATMTTDTSTSTAYLELSSLRSEDTAVYYCARSGGLPDVWGQGTTVTVSS VL: EIVLTQSPGTLSLSPGERATLSCRASSSVSYMYWYQQKPGQAPRLLIYATSNLASGIPDRFSGSGSGTDFTLTISRLEPEDFAVYYCQQWEGNPRTFGGGTKLEIK | 0.067 nM |
| A189 (antibody, IgG1, V domains shown) VH: QVQLVQSGAEVKKPGASVKVSCKASGFDIQDTYMHWVKQRPGQGLEWIGRIDPASGHTKYDPKFQVRVTMTTDTSTSTAYLELSSLRSEDTAVYYCARSGGLPDVWGQGTTVTVSS VL: EIVLTQSPGTLSLSPGERATLSCRASSSVSYMYWYQQKPGQAPRLLIYATSNLASGIPDRFSGSGSGTDFTLTISRLEPEDFAVYYCQQWEGNPRTFGGGTKLEIK | 0.076 nM |
| A187 (antibody, IgG1, V domains shown) VH: QVQLVQSGAEVKKPGASVKVSCKASGFDIQDTYMHWVKQRPGQGLEWIGRIDPASGHTKYDPKFQVRVTITRDTSTSTAYLELSSLRSEDTAVYYCARSGGLPDVWGQGTTVTVSS VL: EIVLTQSPGTLSLSPGERATLSCRASSSVSYMYWYQQKPGQAPRLLIYATSNLASGIPDRFSGSGSGTDFTLTISRLEPEDFAVYYCQQWEGNPRTFGGGTKLEIK | 0.056 nM |
| A188 (antibody, IgG1, V domains shown) VH: QVQLVQSGAEVKKPGASVKVSCKASGFDIQDTYMHWVKQRPGQGLEWIGRIDPASGHTKYDPKFQVRVTITTDTSTSTAYLELSSLRSEDTAVYYCARSGGLPDVWGQGTTVTVSS VL: EIVLTQSPGTLSLSPGERATLSCRASSSVSYMYWYQQKPGQAPRLLIYATSNLASGIPDRFSGSGSGTDFTLTISRLEPEDFAVYYCQQWEGNPRTFGGGTKLEIK | 0.063 nM |
| A192 (antibody, IgG1, V domains shown) VH: QVQLVQSGAEVKKPGASVKVSCKASGFDIQDTYMHWVKQRPGQGLEWIGRIDPASGHTKYDPKFQVRATITTDTSTSTVYMELSSLRSEDTAVYYCARSGGLPDVWGQGTTVTVSS VL: EIVLTQSPGTLSLSPGERATLSCRASSSVSYMYWYQQKPGQAPRLLIYATSNLASGIPDRFSGSGSGTDFTLTISRLEPEDFAVYYCQQWEGNPRTFGGGTKLEIK | 0.055 nM |
| A193 (antibody, IgG1, V domains shown) VH: EVQLVQSGAEVKKPGASVKVSCKASGFDIQDTYMHWVKQRPGQGLEWIGRIDPASGHTKYDPKFQVRATITTDTSTSTAYLELSSLRSEDTAVYYCARSGGLPDVWGQGTTVTVSS VL: EIVLTQSPGTLSLSPGERATLSCRASSSVSYMYWYQQKPGQAPRPWIYATSNLASGIPDRFSGSGSGTDFTLTISRLEPEDFAVYYCQQWEGNPRTFGGGTKLEIK | 0.055 nM |
| A191 (antibody, IgG1, V domains shown) VH: QVQLVQSGAEVKKPGASVKVSCKASGFDIQDTYMHWVKQRPGQGLEWIGRIDPASGHTKYDPKFQVRATITTDTSTSTAYMELSSLRSEDTAVYYCARSGGLPDVWGQGTTVTVSS VL: EIVLTQSPGTLSLSPGERATLSCRASSSVSYMYWYQQKPGQAPRLLIYATSNLASGIPDRFSGSGSGTDFTLTISRLEPEDFAVYYCQQWEGNPRTFGGGTKLEIK | 0.057 nM |
| A194 (antibody, IgG1, V domains shown) VH: EVQLVQSGAEVKKPGASVKVSCKASGFDIQDTYMHWVRQRPGQGLEWIGRIDPASGHTKYDPKFQVRATITTDTSTSTAYLELSSLRSEDTAVYYCARSGGLPDVWGQGTTVTVSS VL: EIVLTQSPGTLSLSPGERATLSCRASSSVSYMYWYQQKPGQAPRPWIYATSNLASGIPDRFSGSGSGTDFTLTISRLEPEDFAVYYCQQWEGNPRTFGGGTKLEIK | 0.051 nM |
| A190 (antibody, IgG1, V domains shown) VH: QVQLVQSGAEVKKPGASVKVSCKASGFDIQDTYMHWVKQRPGQGLEWIGRIDPASGHTKYDPKFQVRATITTDTSTSTVYLELSSLRSEDTAVYYCARSGGLPDVWGQGTTVTVSS VL: EIVLTQSPGTLSLSPGERATLSCRASSSVSYMYWYQQKPGQAPRLLIYATSNLASGIPDRFSGSGSGTDFTLTISRLEPEDFAVYYCQQWEGNPRTFGGGTKLEIK | 0.057 nM |

Other lines, results leading:

| Kd | Binder |
| --- | --- |
| 0.054 nM | A196 (antibody, IgG1, V domains shown) VH: EVQLVQSGAEVKKPGASVKVSCKASGFDIQDTYMHWVRQAPGQGLEWMGRIEPASGHIKYDPKFQGRATMTRDTSTSTVYMELSSLRSEDTAVYYCARSGGLPDWWGQGTTVTVSS VL: EIVLTQSPGTLSLSPGERATLSCRASSSVSYMYWYQQKPGQAPRPWIYATSNLASGIPDRFSGSGSGTDFTLTISRLEPEDFAVYYCQQWEGNPRTFGGGTKLEIK |
| 0.05 nM | A199 (antibody, IgG1, V domains shown) VH: EVQLVQSGAEVKKPGASVKVSCKASGFDIQDTYMHWVKQRPGQGLEWIGRIDPASGHTKYDPKFQVRATITTDTSTSTAYLELSSLRSEDTAVYYCARSGGLPDVWGQGTTVTVSS VL: EIVLTQSPGTLSLSPGERATLSCRASSSVSYMYWYQQKPGQAPRPLIYATSNLASGIPDRFSGSGSGTDFTLTISRLEPEDFAVYYCQQWEGNPRTFGGGTKLEIK |
| 0.054 nM | A197 (antibody, IgG1, V domains shown) VH: EVQLVQSGAEVKKPGASVKVSCKASGFDIQDTYMHWVKQAPGQGLEWMGRIEPASGHIKYDPKFQGRVTMTRDTSTSTVYMELSSLRSEDTAVYYCARSGGLPDWWGQGTTVTVSS VL: EIVLTQSPGTLSLSPGERATLSCRASSSVSYMYWYQQKPGQAPRPWIYATSNLASGIPDRFSGSGSGTDFTLTISRLEPEDFAVYYCQQWEGNPRTFGGGTKLEIK |
| 0.056 nM | A195 (antibody, IgG1, V domains shown) VH: EVQLVQSGAEVKKPGASVKVSCKASGFDIQDTYMHWVRQAPGQGLEWMGRIEPASGHIKYDPKFQGRATITTDTSTSTVYMELSSLRSEDTAVYYCARSGGLPDWWGQGTTVTVSS VL: EIVLTQSPGTLSLSPGERATLSCRASSSVSYMYWYQQKPGQAPRPWIYATSNLASGIPDRFSGSGSGTDFTLTISRLEPEDFAVYYCQQWEGNPRTFGGGTKLEIK |
| 0.053 nM | A204 (antibody, IgG1, V domains shown) VH: EVQLVQSGAEVKKPGASVKVSCKASGFDIQDTYMHWVRQAPGQGLEWMGRIEPASGHIKYDPKFQGRVTMTRDTSTSTAYMELSSLRSEDTAVYYCARSGGLPDWWGQGTTVTVSS VL: EIVLTQSPGTLSLSPGERATLSCRASSSVSYMYWYQQKPGQAPRPLIYATSNLASGIPDRFSGSGSGTDFTLTISRLEPEDFAVYYCQQWEGNPRTFGGGTKLEIK |
| 0.052 nM | A200 (antibody, IgG1, V domains shown) VH: EVQLVQSGAEVKKPGASVKVSCKASGFDIQDTYMHWVRQRPGQGLEWIGRIDPASGHTKYDPKFQVRATITTDTSTSTAYLELSSLRSEDTAVYYCARSGGLPDVWGQGTTVTVSS VL: EIVLTQSPGTLSLSPGERATLSCRASSSVSYMYWYQQKPGQAPRPLIYATSNLASGIPDRFSGSGSGTDFTLTISRLEPEDFAVYYCQQWEGNPRTFGGGTKLEIK |
| 0.059 nM | A202 (antibody, IgG1, V domains shown) VH: EVQLVQSGAEVKKPGASVKVSCKASGFDIQDTYMHWVRQAPGQGLEWMGRIEPASGHIKYDPKFQGRATMTRDTSTSTVYMELSSLRSEDTAVYYCARSGGLPDWWGQGTTVTVSS VL: EIVLTQSPGTLSLSPGERATLSCRASSSVSYMYWYQQKPGQAPRPLIYATSNLASGIPDRFSGSGSGTDFTLTISRLEPEDFAVYYCQQWEGNPRTFGGGTKLEIK |
| 0.05 nM | A206 (antibody, IgG1, V domains shown) VH: EVQLVQSGAEVKKPGASVKVSCKASGFDIQDTYMHWVRQRPGQGLEWIGRIDPASGHTKYDPKFQVRATITTDTSTSTAYLELSSLRSEDTAVYYCARSGGLPDVWGQGTTVTVSS VL: EIVLTQSPGTLSLSPGERATLSCRASSSVSYMYWYQQKPGQAPRLLIYATSNLASGIPDRFSGSGSGTDFTLTISRLEPEDFAVYYCQQWEGNPRTFGGGTKLEIK |
| 0.062 nM | A203 (antibody, IgG1, V domains shown) VH: EVQLVQSGAEVKKPGASVKVSCKASGFDIQDTYMHWVKQAPGQGLEWMGRIEPASGHIKYDPKFQGRVTMTRDTSTSTVYMELSSLRSEDTAVYYCARSGGLPDWWGQGTTVTVSS VL: EIVLTQSPGTLSLSPGERATLSCRASSSVSYMYWYQQKPGQAPRPLIYATSNLASGIPDRFSGSGSGTDFTLTISRLEPEDFAVYYCQQWEGNPRTFGGGTKLEIK |
| 0.055 nM | A205 (antibody, IgG1, V domains shown) VH: EVQLVQSGAEVKKPGASVKVSCKASGFDIQDTYMHWVKQRPGQGLEWIGRIDPASGHTKYDPKFQVRATITTDTSTSTAYLELSSLRSEDTAVYYCARSGGLPDVWGQGTTVTVSS VL: EIVLTQSPGTLSLSPGERATLSCRASSSVSYMYWYQQKPGQAPRLLIYATSNLASGIPDRFSGSGSGTDFTLTISRLEPEDFAVYYCQQWEGNPRTFGGGTKLEIK |
| 0.058 nM | A201 (antibody, IgG1, V domains shown) VH: EVQLVQSGAEVKKPGASVKVSCKASGFDIQDTYMHWVRQAPGQGLEWMGRIEPASGHIKYDPKFQGRATITTDTSTSTVYMELSSLRSEDTAVYYCARSGGLPDWWGQGTTVTVSS VL: EIVLTQSPGTLSLSPGERATLSCRASSSVSYMYWYQQKPGQAPRPLIYATSNLASGIPDRFSGSGSGTDFTLTISRLEPEDFAVYYCQQWEGNPRTFGGGTKLEIK |
| 0.053 nM | A198 (antibody, IgG1, V domains shown) VH: EVQLVQSGAEVKKPGASVKVSCKASGFDIQDTYMHWVRQAPGQGLEWMGRIEPASGHIKYDPKFQGRVTMTRDTSTSTAYMELSSLRSEDTAVYYCARSGGLPDWWGQGTTVTVSS VL: EIVLTQSPGTLSLSPGERATLSCRASSSVSYMYWYQQKPGQAPRPWIYATSNLASGIPDRFSGSGSGTDFTLTISRLEPEDFAVYYCQQWEGNPRTFGGGTKLEIK |
| 0.058 nM | A209 (antibody, IgG1, V domains shown) VH: EVQLVQSGAEVKKPGASVKVSCKASGFDIQDTYMHWVKQAPGQGLEWMGRIEPASGHIKYDPKFQGRVTMTRDTSTSTVYMELSSLRSEDTAVYYCARSGGLPDWWGQGTTVTVSS VL: EIVLTQSPGTLSLSPGERATLSCRASSSVSYMYWYQQKPGQAPRLLIYATSNLASGIPDRFSGSGSGTDFTLTISRLEPEDFAVYYCQQWEGNPRTFGGGTKLEIK |
